Measured values: article PMC4338625, “Comparison of MAPK specificity across the ETS transcription factor family identifies a high-affinity ERK interaction required for ERG function in prostate cells” (Cell Communication and Signaling : CCS, 2015)

T1: ETS1, full-length human, 6x His-tagged (human, UniProt P14921 1-441)
T1 construct: human ETS1, full-length cDNA in pET28a
T1 sequence (looked up): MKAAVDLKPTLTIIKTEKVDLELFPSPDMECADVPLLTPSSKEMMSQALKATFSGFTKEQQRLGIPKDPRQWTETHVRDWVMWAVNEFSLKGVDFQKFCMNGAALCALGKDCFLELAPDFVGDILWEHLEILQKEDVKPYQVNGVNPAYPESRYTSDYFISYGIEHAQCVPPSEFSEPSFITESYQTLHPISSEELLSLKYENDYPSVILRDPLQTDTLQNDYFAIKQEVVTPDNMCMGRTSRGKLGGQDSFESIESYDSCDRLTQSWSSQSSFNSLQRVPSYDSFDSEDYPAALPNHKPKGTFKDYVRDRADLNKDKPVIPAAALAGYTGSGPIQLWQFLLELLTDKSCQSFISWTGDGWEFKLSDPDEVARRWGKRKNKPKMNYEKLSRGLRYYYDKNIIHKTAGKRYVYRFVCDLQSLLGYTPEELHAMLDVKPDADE

B1: ERK2 (pERK2, activated by co-expression with constitutively active MEK) (enzyme, UniProt P63086 1-358, looked up)
chain: MAAAAAAGPEMVRGQVFDVGPRYTNLSYIGEGAYGMVCSAYDNLNKVRVAIKKISPFEHQTYCQRTLREIKILLRFRHENIIGINDIIRAPTIEQMKDVYIVQDLMETDLYKLLKTQHLSNDHICYFLYQILRGLKYIHSANVLHRDLKPSNLLLNTTCDLKICDFGLARVADPDHDHTGFLTEYVATRWYRAPEIMLNSKGYTKSIDIWSVGCILAEMLSNRPIFPGKHYLDQLNHILGILGSPSQEDLNCIINLKARNYLLSLPHKNKVPWNRLFPNADSKALDLLDKMLTFNPHKRIEVEQALAHPYLEQYYDPSDEPIAEAPFKFDMELDDLPKEKLKELIFEETARFQPGYRS
modifications: phosphorylated by co-expressed constitutively active MEK (pERK2); fluorescently labeled with amine reactive RED-NHS dye (Monolith Protein Labeling Kit RED-NHS)
notes: also called ERK2 kinase; source: co-expressed with constitutively active MEK, purified from bacteria as described [52]

How the values were obtained:
[1] = biological target: ERK2 (pERK2, activated by co-expression with constitutively active MEK) (UniProt P63086); experiment: MST; 200 nM fluorescently labeled (RED-NHS) ERK2 incubated 30 minutes at room temperature in the dark with different concentrations of purified ETS1 or ERG; standard glass capillaries; NanoTemper Monolith NT.115, LED 80%, IR laser 80%
[2] = biological target: T1, ETS1, full-length human, 6x His-tagged; experiment: as above; conditions: both partners purified

Molecule | Kd [1] [µM] | Kd [2] [µM]
ERG (isoform 1), full-length human, 6x His-tagged (natural protein) | 0.23 | 
B1 |  | 1.79
